This note sets out measurements from patent US20250250320A1 (UNIVERSITE CATHOLIQUE DE LOUVAIN, published 2025).

Bounds are passed on as bounds.

In series [1] the target is CALR del52 (human calreticulin mutant L367fs*46), full length, no tag stated (human). Kind of series: flow cytometry on living Ba/F3 cells with human TPOR and CALR mutant after adding the Fc fusion to the medium; concentration not given. Background: In flow cytometry, cells or beads pass a laser one at a time.
Series [2] concerns the molecule itself. The series can be described thus: native gel of CALR species with or without DTT (self-association).
Series [3] concerns the target T1, recombinant complete extracellular domain of TpoR with mature glycans (human, UniProt P40238 26-490, mature glycans).
T1 construct: Purified recombinant protein used in HDx-MS; also called TpoR ECD; D1D2D3D4
T1 sequence: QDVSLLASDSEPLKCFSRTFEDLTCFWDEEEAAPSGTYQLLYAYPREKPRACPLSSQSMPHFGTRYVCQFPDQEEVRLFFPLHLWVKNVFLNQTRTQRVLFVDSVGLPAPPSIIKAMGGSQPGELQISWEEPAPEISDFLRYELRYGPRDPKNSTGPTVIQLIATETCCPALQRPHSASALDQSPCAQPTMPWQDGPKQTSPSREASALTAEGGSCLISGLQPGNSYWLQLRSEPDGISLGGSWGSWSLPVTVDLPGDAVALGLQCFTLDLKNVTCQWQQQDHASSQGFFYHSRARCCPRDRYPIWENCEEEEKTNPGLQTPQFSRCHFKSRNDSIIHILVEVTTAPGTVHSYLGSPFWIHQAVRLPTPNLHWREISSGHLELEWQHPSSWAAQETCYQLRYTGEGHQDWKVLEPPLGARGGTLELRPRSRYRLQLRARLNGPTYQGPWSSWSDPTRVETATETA
Kind of series: HDx-MS of mature TpoR ECD alone or with CALR del52. On the procedure: Hydrogen-Deuterium Exchange Mass Spectrometry (HDx-MS): Hydrogen-Deuterium Exchange Mass Spectrometry was performed with a Waters nanoAcquity UPLC with HDx technology coupled with Synapt G2-Si. All purified recombinant proteins were used at 20 μM concentration in equilibration buffer (5 mM K2HPO4, 5 mM KH2PO4 dissolved in H2O, pH 7). For interaction analysis between recombinant mature D1D2D3D4 and CALR del52, proteins were first mixed together at a 1:1 molarity for 30 minutes at room temperature followed by 3 hours at 4° C. Proteins were then kept at 0° C. Labelling was performed with a 20-fold dilution of samples in labelling buffer (5 mM K2HPO4, 5 mM KH2PO4 dissolved in D20, pD 7) for 6 different incubation times (0, 0.25, 1, 5, 20 and 60 minutes) at 20° C. After incubation, the reaction was quenched using a 1:1 dilution in the quench buffer (0.05 M K2HPO4, 0.05 M KH2PO4 with 30 mM TCEP, pH 2.3) prior to injection into a pepsin column (Enzymate BEH Pepsin 2.1×30 Column, Waters CAT. 186007233) with dynamic flowrate of 150-75 μL/min. […] The peptides identified were further analyzed with DynamX 3.0 (Waters) using a tolerance of 10 ppm, a maximum length of 35 a.a., a minimum products per amino acid of 0.2 and requiring that each peptide was identified in 3 out of 3 replicates. […] Data was statistically analyzed using Deuteros 2.0 with peptide-level significance testing (Lau et al., 2021). […]

For series [4], the target named is T2, TpoR D1D2 (sD1D2) with immature glycans, produced with CALR del52 in Drosophila S2 (Schneider) cells (human, UniProt P40238 26-283, limits assumed, immature glycans (Asn117)).
T2 construct: Purified as a complex with CALR del52 for HDx-MS; also called immature TpoR
T2 sequence: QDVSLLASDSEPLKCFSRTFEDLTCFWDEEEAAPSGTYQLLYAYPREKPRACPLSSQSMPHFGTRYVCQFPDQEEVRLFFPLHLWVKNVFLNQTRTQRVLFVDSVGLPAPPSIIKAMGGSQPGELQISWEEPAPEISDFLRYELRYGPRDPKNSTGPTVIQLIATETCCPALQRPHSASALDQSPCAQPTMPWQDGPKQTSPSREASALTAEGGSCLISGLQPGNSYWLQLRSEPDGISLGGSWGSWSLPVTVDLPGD
Kind of series: complex co-produced in S2 cells, size-exclusion chromatography, HDx-MS. The text has this: All peptides were visually validated based on retention time, drift time and isotopic m/z. Data was statistically analyzed using Deuteros 2.0 with peptide-level significance testing (Lau et al., 2021).
Subsequently, CALR del52-D1D2 produced as a complex in Schneider cells was purified. Briefly, the extracellular domain of the human TpoR and human CALR mutant del52 produced in Drosophila S2 cells (Thermo Fisher Scientific) were fractionated by using size-exclusion chromatography by loading on a Superdex 200 Increase 10/300 column (GE Healthcare). Elution was performed at 0.5 mL/min with buffer TNG (Tris-NaCl-glycerol) pH 7.5, and 0.5 mL fractions were collected and analyzed by sodium dodecyl sulfate-polyacrylamide gel electrophoresis and western blot. Fraction proteins were immunoprecipitated with anti-His5 antibody (Qiagen) and treated with Endoglycosidase-H (NEB) or N-glycosidase F (NEB). HDx-MS was used to detect all interaction sites between CALR del52 and TpoR D1D2 (sD1D2) produced in the same cells. […] Importantly, this region was not involved in binding of mature TpoR as shown above, confirming that it is specifically involved in interaction with immature glycans. […]

Series [5] deals with the molecule itself. The series can be described thus: native gel with or without DTT (self-association).

As to “D1-Fc (TPOR D1 domain fused through its C-terminus to an Fc fragment) (from UniProt P40238 26-121) (Fc fusion)”, the reduction of the level of CALR mutant at the cell surface in series [1] is above 50%.

B1: CALR Δc-tail (other)
chain: EPAVYFKEQFLDGDGWTSRWIESKHKSDFGKFVLSSGKFYGDEEKDKGLQTSQDARFYALSASFEPFSNKGQTLVVQFTVKHEQNIDCGGGYVKLFPNSLDQTDMHGDSEYNIMFGPDICGPGTKKVHVIFNYKGKNVLINKDIRCKDDEFTHLYTLIVRPDNTYEVKIDNSQVESGSLEDDWDFLPPKKIKDPDASKPEDWDERAKIDDPTDSKPEDWDKPEHIPDPDAKKPEDWDEEMDGEWEPPVIQNPEYKGEWKPRQIDNPDYKGTWIHPEIDNPEYSPDPSIYAYDNFGVLGLDLWQVKSGTIFDNFLITNDEAYAEEFGNETWGVTKAAEKQMKDKQDEEQR
notes: the C-tail is absent
On to B1, for which the binding result in series [2] is recorded as “no binding”.

B2: CALR del52 (human calreticulin mutant L367fs*46), full length, no tag stated (other)
chain: EPAVYFKEQFLDGDGWTSRWIESKHKSDFGKFVLSSGKFYGDEEKDKGLQTSQDARFYALSASFEPFSNKGQTLVVQFTVKHEQNIDCGGGYVKLFPNSLDQTDMHGDSEYNIMFGPDICGPGTKKVHVIFNYKGKNVLINKDIRCKDDEFTHLYTLIVRPDNTYEVKIDNSQVESGSLEDDWDFLPPKKIKDPDASKPEDWDERAKIDDPTDSKPEDWDKPEHIPDPDAKKPEDWDEEMDGEWEPPVIQNPEYKGEWKPRQIDNPDYKGTWIHPEIDNPEYSPDPSIYAYDNFGVLGLDLWQVKSGTIFDNFLITNDEAYAEEFGNETWGVTKAAEKQMKDKQDEEQRTRRMMRTKMRMRRMRRTRRKMRRKMSPARPRTSCREACLQGWTEA
notes: also called CALR mutant; mutant CALR
Turning to B2, the binding result in series [3], in series [4] and in series [5] was “binds” throughout.
